From patent US20180355003A1

Experiments:
[1] = target: His-tagged IDO1 human recombinant protein (71182, BPS Biosciences) (UniProt P14902); experiment: ELISA
Human IDO1 = Human IDO1 (UniProt P14902); experiment: ELISA
Chain of Human IDO1 (P14902 2-403): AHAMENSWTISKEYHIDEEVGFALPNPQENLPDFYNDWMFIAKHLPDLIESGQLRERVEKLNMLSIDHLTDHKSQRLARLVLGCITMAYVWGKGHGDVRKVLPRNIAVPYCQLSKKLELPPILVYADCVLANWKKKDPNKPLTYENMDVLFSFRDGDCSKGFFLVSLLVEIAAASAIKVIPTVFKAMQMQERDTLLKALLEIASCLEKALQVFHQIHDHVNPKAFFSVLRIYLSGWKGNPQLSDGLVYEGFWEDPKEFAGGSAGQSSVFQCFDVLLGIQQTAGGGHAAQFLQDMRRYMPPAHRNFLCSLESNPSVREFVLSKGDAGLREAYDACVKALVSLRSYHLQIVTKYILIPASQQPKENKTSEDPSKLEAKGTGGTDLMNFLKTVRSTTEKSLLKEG

Chain of His-tagged IDO1 human recombinant protein (71182, BPS Biosciences) (P14902 2-403): as above

| EC50 [1] | EC50 (Human IDO1) | Substance |
| --- | --- | --- |
| 104 nM |  | Biotin-PEG3-Cy(nlf(Me-Trp)a) |
|  | 79 nM | w--ray |
|  | 96 nM | ww(F-Phe) |
|  | 113 nM | yray |
